{"source": "paper PMC4766306", "about": "“CYP96T1 of Narcissus sp. aff. pseudonarcissus Catalyzes Formation of the Para-Para' C-C Phenol Couple in the Amaryllidaceae Alkaloids” (Frontiers in Plant Science, 2016)", "proteins": {"B1": {"name": "CYP96T1 (Narcissus aff. pseudonarcissus MK-2014) (protein)", "chain": "MATSSSAWLMFSDHYPEILIAIACFLIFSLLLSARSSSEDSLPYNWPIFGMLPAIISNNQFNDFTTARLRKMGWTFIFKGPWLLDMDYIFTCDPSNINHMFNDNFENYPKGELGKVFDIFGNNIFNADGDLWHDHRKMAQTILWDGNYRTMQATFIRNKMDNALIPILDSAASKRKPVDLQDVFFRFTFDTSCFSVLAADPESLTMEFPAVPFSKAADQALDAALTRHITPRLIWKLKRFFNVGSERTLAVAWKVIDSYIYDKIAELKAKRKLVGKINSYDAVSFYMDNFNIHDDKFLRDNAFTYLLAQRNTQSLTMTWLFYALFENPKVELKILSELKSIVDESSERKFNDGFALFDSNMIQSAIYLHATLCEALRIYPPVPFEIKDAHKADVLPSGHKVRAGEKILFSPYAMARMKGIWGDDCLEFKPERWITGNGTLKHEPAYKFFAFSAGPRICLGKELSFTQMKMVVATIIYNFHLQMVKGHVVEQSNSILMDMKHGLMVQVRKRSVM", "notes": "CYP96T1 ORF (GenBank KT693311) expressed in Sf9 cells, co-expressed with Eschscholzia californica CPR"}}, "assay_type_in_all_cases": "cell-based, Narcissus aff. pseudonarcissus MK-2014", "details_in_all_cases": "heme", "key": {"[1]": {"substrate": "COc1cc2c(cc1O)[C@@H](Cc1ccc(O)cc1)NCC2", "test": "LC-MS/MS enzyme kinetics with Sf9-expressed CYP96T1"}, "[2]": {"substrate": "COc1cc2c(cc1O)[C@H](Cc1ccc(O)cc1)NCC2", "test": "LC-MS/MS enzyme kinetics with Sf9-expressed CYP96T1"}, "[3]": {"substrate": "COc1ccc(CN(C)CCc2ccc(O)cc2)cc1O", "test": "LC-MS/MS enzyme kinetics with Sf9-expressed CYP96T1; CPR-only negative control"}, "[4]": {"substrate": "COc1ccc(CNCCc2ccc(O)cc2)cc1O", "test": "LC-MS/MS enzyme kinetics with Sf9-expressed CYP96T1; CPR-only negative control"}}, "data": [{"protein": "B1", "values": [{"measurement": "Km", "setting": "[1]", "result": "659 ± 104", "unit": "µM"}, {"measurement": "kcat", "setting": "[1]", "result": "0.0345 ± 0.00233", "unit": "s⁻¹"}, {"measurement": "kcat/Km", "setting": "[1]", "result": 52.5, "unit": "M⁻¹ s⁻¹"}, {"measurement": "Km", "setting": "[2]", "result": "637 ± 156", "unit": "µM"}, {"measurement": "kcat", "setting": "[2]", "result": "0.0223 ± 0.0025", "unit": "s⁻¹"}, {"measurement": "kcat/Km", "setting": "[2]", "result": 35.2, "unit": "M⁻¹ s⁻¹"}, {"measurement": "Km", "setting": "[3]", "result": "3.28 ± 2.27", "unit": "µM"}, {"measurement": "kcat", "setting": "[3]", "result": "0.0407 ± 0.009", "unit": "s⁻¹"}, {"measurement": "kcat/Km", "setting": "[3]", "result": 12400, "unit": "M⁻¹ s⁻¹"}, {"measurement": "Km", "setting": "[4]", "result": "1.13 ± 0.54", "unit": "µM"}, {"measurement": "kcat", "setting": "[4]", "result": "0.25 ± 0.0338", "unit": "s⁻¹"}, {"measurement": "kcat/Km", "setting": "[4]", "result": 217000, "unit": "M⁻¹ s⁻¹"}]}]}
